Measurements: patent US20230365662A1
Values joined by “and” are separate entries in the source; they are usually repeats but may differ in a detail not shown here. Equal entries are not always repeated.

Target: HRgpA-6H (Porphyromonas gingivalis) (UniProt P28784)
Assay: ELISA on coated HRgpA-6H

Sequence of UniProt P28784 (P28784 228-991 limits assumed): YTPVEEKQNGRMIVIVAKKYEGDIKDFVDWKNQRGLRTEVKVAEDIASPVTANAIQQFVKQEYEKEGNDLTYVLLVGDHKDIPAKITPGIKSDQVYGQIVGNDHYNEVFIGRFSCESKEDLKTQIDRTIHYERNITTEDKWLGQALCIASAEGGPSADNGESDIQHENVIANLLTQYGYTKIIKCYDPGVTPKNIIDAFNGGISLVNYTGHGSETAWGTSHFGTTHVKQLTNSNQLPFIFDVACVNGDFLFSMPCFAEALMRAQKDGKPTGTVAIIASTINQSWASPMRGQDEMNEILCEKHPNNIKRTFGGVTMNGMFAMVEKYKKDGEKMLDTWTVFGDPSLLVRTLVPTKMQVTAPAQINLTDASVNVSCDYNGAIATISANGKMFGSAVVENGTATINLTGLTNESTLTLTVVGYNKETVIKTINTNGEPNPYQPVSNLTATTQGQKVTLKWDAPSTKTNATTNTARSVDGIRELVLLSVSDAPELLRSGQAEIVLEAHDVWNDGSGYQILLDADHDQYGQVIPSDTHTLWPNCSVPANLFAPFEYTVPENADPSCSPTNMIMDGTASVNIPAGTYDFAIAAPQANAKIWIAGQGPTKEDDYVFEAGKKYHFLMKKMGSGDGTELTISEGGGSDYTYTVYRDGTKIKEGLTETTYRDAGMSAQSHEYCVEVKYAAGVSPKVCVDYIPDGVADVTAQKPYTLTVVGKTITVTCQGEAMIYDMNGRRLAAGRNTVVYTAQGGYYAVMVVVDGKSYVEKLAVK

Binder	OD450nm	Ratio OD(Variant)/OD(WT)
KB001 mouse Fab FASEBA VH N60P (Fab, V domains shown) VH: EVQLKQSGPGLVAPSQSLSITCTVSGFSLSIYSVHWVRQPPGKGLEWLGMIWGGGSSDYPSALKSRLSISKDNSKSQVFLKMNSLQTDDTAMYYCARNGNFYAMDYWGQGTSVTVSS VL: QIVLTQSPAIMSASLGERVTMTCTASSSVSSSFLHWYQQKPGSSPQLWIYSTSNLASGVPARFSGSGSGTSYSLTISSMEAEDAATYYCHQYHHSPYIYTFGGGTKLEIK	0.44 and 0.428	0.892 and 0.867
KB001 mouse Fab FASEBA VH N60Q (Fab, V domains shown) VH: EVQLKQSGPGLVAPSQSLSITCTVSGFSLSIYSVHWVRQPPGKGLEWLGMIWGGGSSDYQSALKSRLSISKDNSKSQVFLKMNSLQTDDTAMYYCARNGNFYAMDYWGQGTSVTVSS VL: QIVLTQSPAIMSASLGERVTMTCTASSSVSSSFLHWYQQKPGSSPQLWIYSTSNLASGVPARFSGSGSGTSYSLTISSMEAEDAATYYCHQYHHSPYIYTFGGGTKLEIK	0.447 and 0.402	0.906 and 0.815
KB001 mouse Fab FASEBA VH S61R (Fab, V domains shown) VH: EVQLKQSGPGLVAPSQSLSITCTVSGFSLSIYSVHWVRQPPGKGLEWLGMIWGGGSSDYNRALKSRLSISKDNSKSQVFLKMNSLQTDDTAMYYCARNGNFYAMDYWGQGTSVTVSS VL: QIVLTQSPAIMSASLGERVTMTCTASSSVSSSFLHWYQQKPGSSPQLWIYSTSNLASGVPARFSGSGSGTSYSLTISSMEAEDAATYYCHQYHHSPYIYTFGGGTKLEIK	0.438	0.888
KB001 mouse Fab FASEBA VH N60T (Fab, V domains shown) VH: EVQLKQSGPGLVAPSQSLSITCTVSGFSLSIYSVHWVRQPPGKGLEWLGMIWGGGSSDYTSALKSRLSISKDNSKSQVFLKMNSLQTDDTAMYYCARNGNFYAMDYWGQGTSVTVSS VL: QIVLTQSPAIMSASLGERVTMTCTASSSVSSSFLHWYQQKPGSSPQLWIYSTSNLASGVPARFSGSGSGTSYSLTISSMEAEDAATYYCHQYHHSPYIYTFGGGTKLEIK	0.406	0.823
KB001 mouse Fab FASEBA VH S61G (Fab, V domains shown) VH: EVQLKQSGPGLVAPSQSLSITCTVSGFSLSIYSVHWVRQPPGKGLEWLGMIWGGGSSDYNGALKSRLSISKDNSKSQVFLKMNSLQTDDTAMYYCARNGNFYAMDYWGQGTSVTVSS VL: QIVLTQSPAIMSASLGERVTMTCTASSSVSSSFLHWYQQKPGSSPQLWIYSTSNLASGVPARFSGSGSGTSYSLTISSMEAEDAATYYCHQYHHSPYIYTFGGGTKLEIK	0.46 and 0.476	0.932 and 0.965
KB001 mouse Fab FASEBA VH A62L (Fab, V domains shown) VH: EVQLKQSGPGLVAPSQSLSITCTVSGFSLSIYSVHWVRQPPGKGLEWLGMIWGGGSSDYNSLLKSRLSISKDNSKSQVFLKMNSLQTDDTAMYYCARNGNFYAMDYWGQGTSVTVSS VL: QIVLTQSPAIMSASLGERVTMTCTASSSVSSSFLHWYQQKPGSSPQLWIYSTSNLASGVPARFSGSGSGTSYSLTISSMEAEDAATYYCHQYHHSPYIYTFGGGTKLEIK	0.812	0.929
KB001 mouse Fab FASEBA VH A62M (Fab, V domains shown) VH: EVQLKQSGPGLVAPSQSLSITCTVSGFSLSIYSVHWVRQPPGKGLEWLGMIWGGGSSDYNSMLKSRLSISKDNSKSQVFLKMNSLQTDDTAMYYCARNGNFYAMDYWGQGTSVTVSS VL: QIVLTQSPAIMSASLGERVTMTCTASSSVSSSFLHWYQQKPGSSPQLWIYSTSNLASGVPARFSGSGSGTSYSLTISSMEAEDAATYYCHQYHHSPYIYTFGGGTKLEIK	0.77 and 0.735	0.881 and 0.841
KB001 mouse Fab FASEBA VH A62V (Fab, V domains shown) VH: EVQLKQSGPGLVAPSQSLSITCTVSGFSLSIYSVHWVRQPPGKGLEWLGMIWGGGSSDYNSVLKSRLSISKDNSKSQVFLKMNSLQTDDTAMYYCARNGNFYAMDYWGQGTSVTVSS VL: QIVLTQSPAIMSASLGERVTMTCTASSSVSSSFLHWYQQKPGSSPQLWIYSTSNLASGVPARFSGSGSGTSYSLTISSMEAEDAATYYCHQYHHSPYIYTFGGGTKLEIK	0.742 and 0.757	0.849 and 0.866
KB001 mouse Fab FASEBA VH S61C (Fab, V domains shown) VH: EVQLKQSGPGLVAPSQSLSITCTVSGFSLSIYSVHWVRQPPGKGLEWLGMIWGGGSSDYNCALKSRLSISKDNSKSQVFLKMNSLQTDDTAMYYCARNGNFYAMDYWGQGTSVTVSS VL: QIVLTQSPAIMSASLGERVTMTCTASSSVSSSFLHWYQQKPGSSPQLWIYSTSNLASGVPARFSGSGSGTSYSLTISSMEAEDAATYYCHQYHHSPYIYTFGGGTKLEIK	0.431	0.873
KB001 mouse Fab FASEBA VH S61K (Fab, V domains shown) VH: EVQLKQSGPGLVAPSQSLSITCTVSGFSLSIYSVHWVRQPPGKGLEWLGMIWGGGSSDYNKALKSRLSISKDNSKSQVFLKMNSLQTDDTAMYYCARNGNFYAMDYWGQGTSVTVSS VL: QIVLTQSPAIMSASLGERVTMTCTASSSVSSSFLHWYQQKPGSSPQLWIYSTSNLASGVPARFSGSGSGTSYSLTISSMEAEDAATYYCHQYHHSPYIYTFGGGTKLEIK	0.49	0.993
KB001 mouse Fab FASEBA VH S61L (Fab, V domains shown) VH: EVQLKQSGPGLVAPSQSLSITCTVSGFSLSIYSVHWVRQPPGKGLEWLGMIWGGGSSDYNLALKSRLSISKDNSKSQVFLKMNSLQTDDTAMYYCARNGNFYAMDYWGQGTSVTVSS VL: QIVLTQSPAIMSASLGERVTMTCTASSSVSSSFLHWYQQKPGSSPQLWIYSTSNLASGVPARFSGSGSGTSYSLTISSMEAEDAATYYCHQYHHSPYIYTFGGGTKLEIK	0.448	0.908
KB001 mouse Fab FASEBA VH A62G (Fab, V domains shown) VH: EVQLKQSGPGLVAPSQSLSITCTVSGFSLSIYSVHWVRQPPGKGLEWLGMIWGGGSSDYNSGLKSRLSISKDNSKSQVFLKMNSLQTDDTAMYYCARNGNFYAMDYWGQGTSVTVSS VL: QIVLTQSPAIMSASLGERVTMTCTASSSVSSSFLHWYQQKPGSSPQLWIYSTSNLASGVPARFSGSGSGTSYSLTISSMEAEDAATYYCHQYHHSPYIYTFGGGTKLEIK	0.813 and 0.785	0.93 and 0.898
KB001 mouse Fab FASEBA VH A62N (Fab, V domains shown) VH: EVQLKQSGPGLVAPSQSLSITCTVSGFSLSIYSVHWVRQPPGKGLEWLGMIWGGGSSDYNSNLKSRLSISKDNSKSQVFLKMNSLQTDDTAMYYCARNGNFYAMDYWGQGTSVTVSS VL: QIVLTQSPAIMSASLGERVTMTCTASSSVSSSFLHWYQQKPGSSPQLWIYSTSNLASGVPARFSGSGSGTSYSLTISSMEAEDAATYYCHQYHHSPYIYTFGGGTKLEIK	0.721 and 0.799	0.825 and 0.914
KB001 mouse Fab FASEBA VH S61H (Fab, V domains shown) VH: EVQLKQSGPGLVAPSQSLSITCTVSGFSLSIYSVHWVRQPPGKGLEWLGMIWGGGSSDYNHALKSRLSISKDNSKSQVFLKMNSLQTDDTAMYYCARNGNFYAMDYWGQGTSVTVSS VL: QIVLTQSPAIMSASLGERVTMTCTASSSVSSSFLHWYQQKPGSSPQLWIYSTSNLASGVPARFSGSGSGTSYSLTISSMEAEDAATYYCHQYHHSPYIYTFGGGTKLEIK	0.469	0.95
KB001 mouse Fab FASEBA VH A62D (Fab, V domains shown) VH: EVQLKQSGPGLVAPSQSLSITCTVSGFSLSIYSVHWVRQPPGKGLEWLGMIWGGGSSDYNSDLKSRLSISKDNSKSQVFLKMNSLQTDDTAMYYCARNGNFYAMDYWGQGTSVTVSS VL: QIVLTQSPAIMSASLGERVTMTCTASSSVSSSFLHWYQQKPGSSPQLWIYSTSNLASGVPARFSGSGSGTSYSLTISSMEAEDAATYYCHQYHHSPYIYTFGGGTKLEIK	0.853 and 0.851	0.976 and 0.974
KB001 mouse Fab FASEBA VH A62H (Fab, V domains shown) VH: EVQLKQSGPGLVAPSQSLSITCTVSGFSLSIYSVHWVRQPPGKGLEWLGMIWGGGSSDYNSHLKSRLSISKDNSKSQVFLKMNSLQTDDTAMYYCARNGNFYAMDYWGQGTSVTVSS VL: QIVLTQSPAIMSASLGERVTMTCTASSSVSSSFLHWYQQKPGSSPQLWIYSTSNLASGVPARFSGSGSGTSYSLTISSMEAEDAATYYCHQYHHSPYIYTFGGGTKLEIK	0.819 and 0.834 and 0.844	0.937 and 0.954 and 0.966
KB001 mouse Fab FASEBA VH A62Q (Fab, V domains shown) VH: EVQLKQSGPGLVAPSQSLSITCTVSGFSLSIYSVHWVRQPPGKGLEWLGMIWGGGSSDYNSQLKSRLSISKDNSKSQVFLKMNSLQTDDTAMYYCARNGNFYAMDYWGQGTSVTVSS VL: QIVLTQSPAIMSASLGERVTMTCTASSSVSSSFLHWYQQKPGSSPQLWIYSTSNLASGVPARFSGSGSGTSYSLTISSMEAEDAATYYCHQYHHSPYIYTFGGGTKLEIK	0.737 and 0.869	0.843 and 0.994
KB001 mouse Fab FASEBA VH S61F (Fab, V domains shown) VH: EVQLKQSGPGLVAPSQSLSITCTVSGFSLSIYSVHWVRQPPGKGLEWLGMIWGGGSSDYNFALKSRLSISKDNSKSQVFLKMNSLQTDDTAMYYCARNGNFYAMDYWGQGTSVTVSS VL: QIVLTQSPAIMSASLGERVTMTCTASSSVSSSFLHWYQQKPGSSPQLWIYSTSNLASGVPARFSGSGSGTSYSLTISSMEAEDAATYYCHQYHHSPYIYTFGGGTKLEIK	0.432 and 0.473	0.875 and 0.958
KB001 mouse Fab FASEBA VH S61M (Fab, V domains shown) VH: EVQLKQSGPGLVAPSQSLSITCTVSGFSLSIYSVHWVRQPPGKGLEWLGMIWGGGSSDYNMALKSRLSISKDNSKSQVFLKMNSLQTDDTAMYYCARNGNFYAMDYWGQGTSVTVSS VL: QIVLTQSPAIMSASLGERVTMTCTASSSVSSSFLHWYQQKPGSSPQLWIYSTSNLASGVPARFSGSGSGTSYSLTISSMEAEDAATYYCHQYHHSPYIYTFGGGTKLEIK	0.493 and 0.479	0.999 and 0.971
KB001 mouse Fab FASEBA VH S61W (Fab, V domains shown) VH: EVQLKQSGPGLVAPSQSLSITCTVSGFSLSIYSVHWVRQPPGKGLEWLGMIWGGGSSDYNWALKSRLSISKDNSKSQVFLKMNSLQTDDTAMYYCARNGNFYAMDYWGQGTSVTVSS VL: QIVLTQSPAIMSASLGERVTMTCTASSSVSSSFLHWYQQKPGSSPQLWIYSTSNLASGVPARFSGSGSGTSYSLTISSMEAEDAATYYCHQYHHSPYIYTFGGGTKLEIK	0.435 and 0.429	0.881 and 0.869
KB001 mouse Fab FASEBA VH S61Y (Fab, V domains shown) VH: EVQLKQSGPGLVAPSQSLSITCTVSGFSLSIYSVHWVRQPPGKGLEWLGMIWGGGSSDYNYALKSRLSISKDNSKSQVFLKMNSLQTDDTAMYYCARNGNFYAMDYWGQGTSVTVSS VL: QIVLTQSPAIMSASLGERVTMTCTASSSVSSSFLHWYQQKPGSSPQLWIYSTSNLASGVPARFSGSGSGTSYSLTISSMEAEDAATYYCHQYHHSPYIYTFGGGTKLEIK	0.423	0.857
